Laboratory results published in PMC3760018 (European journal of immunology, 2013).
Residue numbers refer to the chain shown, from its start. Names may count otherwise.

B1: recombinant C4BP α-chain WT (natural protein, human, UniProt P04003 49-597, looked up)
chain: NCGPPPTLSFAAPMDITLTETRFKTGTTLKYTCLPGYVRSHSTQTLTCNSDGEWVYNTFCIYKRCRHPGELRNGQVEIKTDLSFGSQIEFSCSEGFFLIGSTTSRCEVQDRGVGWSHPLPQCEIVKCKPPPDIRNGRHSGEENFYAYGFSVTYSCDPRFSLLGHASISCTVENETIGVWRPSPPTCEKITCRKPDVSHGEMVSGFGPIYNYKDTIVFKCQKGFVLRGSSVIHCDADSKWNPSPPACEPNSCINLPDIPHASWETYPRPTKEDVYVVGTVLRYRCHPGYKPTTDEPTTVICQKNLRWTPYQGCEALCCPEPKLNNGEITQHRKSRPANHCVYFYGDEISFSCHETSRFSAICQGDGTWSPRTPSCGDICNFPPKIAHGHYKQSSSYSFFKEEIIYECDKGYILVGQAKLSCSYSHWSAPAPQCKALCRKPELVNGRLSVDKDQYVEPENVTIQCDSGYGVVGPQSITCSGNRTWYPEVPKCEWETPEGCEQVLTGKRLMQCLPNPEDVKMALEVYKLSLEIEQLELQRDSARQSTLDKEL
B2: recombinant C4BP α-chain I300T (natural protein, human, UniProt P04003 49-597, looked up)
chain: B1 chain with I252T
B3: recombinant C4BP α-chain I224T (natural protein, human, UniProt P04003 49-597, looked up)
chain: B1 chain with I176T
B4: recombinant C4BP α-chain D284E (natural protein, human, UniProt P04003 49-597, looked up)
chain: B1 chain with D236E
B5: recombinant C4BP α-chain G423E (natural protein, human, UniProt P04003 49-597, looked up)
chain: B1 chain with G375E
B6: recombinant C4BP α-chain R120H (natural protein, human, UniProt P04003 49-597, looked up)
chain: B1 chain with R72H
B7: recombinant C4BP α-chain I126T (natural protein, human, UniProt P04003 49-597, looked up)
chain: B1 chain with I78T

Biological target: recombinant C4BP α-chain P4Q (human) (UniProt P04003)
Assay: non-reducing SDS-PAGE

Stoichiometry N, 6:
recombinant C4BP α-chain P4Q (from UniProt P04003 49-597) (natural protein)

Biological target: the molecule itself
Assay: non-reducing SDS-PAGE

Stoichiometry N, 6:
B1, B2, B3, B4, B5, B6, B7
